Results: article PMC9649601, “The E262K mutation in Lamin A links nuclear proteostasis imbalance to laminopathy‐associated premature aging” (Aging Cell, 2022)

Target: the molecule itself
Test: dynamic light scattering + other: atomic force microscopy; purified proteins at 0.1 and 10 uM in aqueous environment; ex situ AFM at 10 uM; self-association (oligomers or aggregates)

| Protein | binding result |
| --- | --- |
| second rod domain of lamin A E262K (LMNA^E262K-rod2, residues 226-387) (domain or fragment, human, UniProt P02545 226-387, looked up, lamin A (LMNA), human, second rod domain, residues 226-387, with the patient's variant p.Glu262Lys; source: bacterially expressed recombinant, purified) LVEIDNGKQREFESRLADALQELRAQHEDQVEQYKKKLEKTYSAKLDNARQSAERNSNLVGAAHEELQQSRIRIDSLSAQLSQLQKQLAAKEAKLRDLEDSLARERDTSRRLLAEKEREMAEMRARMQQQLDEYQELLDIKLALDMEIHAYRKLLEGEEERL | binds |
| second rod domain of lamin A (LMNA-rod2, residues 226-387) (domain or fragment, human, UniProt P02545 226-387, looked up, lamin A (LMNA), human, second rod domain, residues 226-387; source: bacterially expressed recombinant, purified) LVEIDNGKQREFESRLADALQELRAQHEDQVEQYKKELEKTYSAKLDNARQSAERNSNLVGAAHEELQQSRIRIDSLSAQLSQLQKQLAAKEAKLRDLEDSLARERDTSRRLLAEKEREMAEMRARMQQQLDEYQELLDIKLALDMEIHAYRKLLEGEEERL | binds |
